Results from article PMC4725879.

How the values were obtained:
[1] = system: LacI (lac repressor), wild type (Escherichia coli); experiment: EMSA; details: no IPTG; 5 mM Mg2+; EMSA: 20 mM Tris-HCl pH 8.0, 200 mM NaCl, 0.5 mM EDTA, 1 mM DTT, 5 mM MgCl2, 5% glycerol, 0.1 nM DNA, 22 C, 60 min; nicking assays at 37 C
[2] = system: LacI-Gly60+3 (Escherichia coli); experiment: EMSA; details: 5 mM Mg2+; EMSA: 20 mM Tris-HCl pH 8.0, 200 mM NaCl, 0.5 mM EDTA, 1 mM DTT, 5 mM MgCl2, 5% glycerol, 0.1 nM DNA, 22 C, 60 min; nicking assays at 37 C

lac O1 fragment showed a Ka [1] of 1.2e+10 M⁻¹ and a Ka [2] of 1e+09 M⁻¹.
lac O2 fragment gave a Ka [2] of 6.2e+08 M⁻¹.
Substance lac Os fragment has a Ka [2] of 2.4e+09 M⁻¹.
